How the values were obtained:
LLC target cells = test: Anti-tumour cytolytic activity of splenocytes against LLC target cells; assay type: in vivo, C57BL/6 mice; settings: Example 18, FIG. 14B (epirubucin experiment), vs controls
Experimental: Splenocytes were tested for their cytolytic activity against tumour target cells. […] Referring to FIGS. 14B, D, and F the percent cytotoxicity is plotted against various effector-to-target cell ratios (E:T ratios); each point represents the mean percent cytotoxicity obtained from 5 mice; and the bar represents 95% confidence intervals.

B16 melanoma tumours = test: B16 melanoma tumour growth in mice; assay type: in vivo, C57BL/6 mice; settings: Example 18; 28 g Fe-Lf per 2.4 Kg diet; fluorouracil 150 mg/Kg i.p.
Experimental: (§1) Tumors were established by s.c. injection of 2×10^5 EL-4 cells into the left flank of mice, and growth determined by measuring two perpendicular diameters. Animals were euthanased when tumors reached more than 1.0 cm in diameter, in accord with Animal Ethics Approval (University of Auckland). All experiments included 5 mice per treatment group, unless otherwise indicated. Paclitaxel (30 mg dissolved in 5 ml of Cremophor® EL and dehydrated alcohol) was diluted in 0.9% NaCl and administered i.p. at 30 mg/Kg. Doxorubucin in water was injected i.p. at 15 mg/Kg. The drugs were injected in a volume of 0.01 to 0.02 ml/g body weight. The expression vector encoding mouse B7-1 was prepared by cesium chloride gradient centrifugation, and diluted to 5 μg/μl in a solution of 5% glucose in 0.01% Triton X-100. It was mixed in a ratio of 1:1 (wt:wt) with DOTAP cationic liposomes (Boehringer Mannheim, Germany). Tumors were injected with 180 μl of DNA (180 μg)/liposome complexes, as described previously (Kanwar, et al., 1999 and Kanwar, et al., 2000).
(§2) Mice were fed the control diet, and the same diet supplemented with 28 g of 100% Fe-saturated lactoferrin per 2.4 Kg of diet. EL-4 (2×10^5), Lewis lung carcinoma (LLC, 2×10^5), and B16 melanoma (2×10^5) tumour cells were injected into the left flanks of C57BL/6 mice following two weeks on the Lf diets, or control diet. […]

IL-18 = IL-18 production by cultured intestinal loops; assay type: cell-based, mice; settings: Example 20; 400 and 800 μg/ml; 48 h; vs bovine serum albumin control protein
Experimental: Cytokine levels in the supernatants of homogenates of the small intestine were determined using a “sandwich” ELISA kit (Endogen, Woburn, Mass.). They were detected within standard curve ranges of 15-375 pg/ml for IL-4, 0-2450 pg/ml for IL-5, 15-1000 pg/ml for TNF-α, 0-3000 pg/ml for IFN-γ, 37-3000 pg/ml for IL-10, 31.3-2000 pg/ml for IL-12, and 31.3-2000 pg/ml for IL-18, respectively. Quantification of nitrite, indicative of NO production, was carried out by the Griess reaction (Sigma, USA). The results are expressed as the mean nitrite concentration (μM)±SD.
100% Fe-saturated Lf, natural Lf (less than 20% iron saturated), and bovine serum albumin control were added at 400 and 800 μg/ml to intestinal loops (2.5 cm segments of the small intestine) prepared from healthy 6 to 7 week-old female mice, which were kept in culture for 48 h. IL-18 levels released by the intestinal loops, and present in the supernatants of homogenates of the small intestine were determined using a “sandwich” ELISA kit as described above.

EL-4 tumours = test: EL-4 tumour growth in mice (s.c. flank tumour model); assay type: in vivo, C57BL/6 mice; settings: for inhibition of tumour growth: Example 1, oral diet, day 42
[1] = Western blot detection of bovine lactoferrin in plasma, tumour and organs of fed mice; assay type: in vivo; settings: oral diet
Experimental: Groups of 5 tumour-bearing mice were fed either the control diet or an iron-saturated bovine lactoferrin diet and treated with paclitaxel or doxorubicin, as indicated. Mice were killed on days described in Example 6 and plasma collected. Referring to FIG. 6, plasma proteins (80 μg) were separated on a 10% polyacrylamide SDS-gel, transferred to a membrane, and blotted with an antibody against bovine lactoferrin (upper panel). The relative amounts of bovine lactoferrin in each lane were recorded by densitometry (lower panel). The order of the plasma samples shown in the histograph is the same for the Western blot. A 75 kDa band characteristic of lactoferrin was present in the plasma samples taken from all the different treatment groups fed bovine lactoferrin, whereas this same band was absent from the plasma of mice fed the control diet (FIG. 6).
Tumour homogenates and sections were screened to determine whether lactoferrin in the systemic circulation reached the tumour site. A group of 5 tumour-bearing mice were fed the control diet or an iron-saturated bovine lactoferrin diet, and treated with paclitaxel and doxorubicin. Mice were killed on days described in Example 6, and tissues from the tumour and small intestine were collected. Tumour and intestine homogenates (80 μg of protein) were separated on a 10% polyacrylamide SDS-gel, transferred to a membrane, and Western blotted with an antibody against bovine lactoferrin (upper panel of FIG. 7). The relative amounts of bovine lactoferrin in each lane were recorded by densitometry (lower panel of FIG. 7). The order of the plasma samples shown in the histograph is the same for the Western blot.
A group of 5 tumour-bearing mice were fed an iron-saturated bovine lactoferrin diet. Mice were killed on days described in Example 6, and tissues from multiple organs, including different regions of the intestine, were collected. Organ homogenates (80 μg of protein) were separated on a 10% polyacrylamide SDS-gel, transferred to a membrane, and blotted with either an antibody against bovine lactoferrin (upper panel of FIG. 8A) or an anti-α-tubulin mAb (middle panel of FIG. 8A). Bovine lactoferrin (1 μg) was included as a standard. The relative amounts of bovine lactoferrin in each lane were recorded by densitometry (lower panel of FIG. 8A). The order of the plasma samples shown in the histograph is the same for the Western blot. […] Roughly equal amounts of bovine lactoferrin were retained by the proximal and distal regions of the small intestine, and the large intestine.

[2] = system: Lewis lung carcinoma (LLC) tumours; test: Lewis lung carcinoma tumour growth in mice; assay type: in vivo, C57BL/6 mice; settings: Example 18; 28 g Fe-Lf per 2.4 Kg diet; epirubucin 15 mg/Kg i.p.
Experimental: as §1, §2

B1: iron-saturated bovine lactoferrin: Iron-saturated bovine lactoferrin extract (100% saturated) prepared from natural bLf (protein)
chain: APRKNVRWCTISQPEWFKCRRWQWRMKKLGAPSITCVRRAFALECIRAIAEKKADAVTLDGGMVFEAGRDPYKLRPVAAEIYGTKESPQTHYYAVAVVKKGSNFQLDQLQGRKSCHTGLGRSAGWIIPMGILRPYLSWTESLEPLQGAVAKFFSASCVPCIDRQAYPNLCQLCKGEGENQCACSSREPYFGYSGAFKCLQDGAGDVAFVKETTVFENLPEKADRDQYELLCLNNSRAPVDAFKECHLAQVPSHAVVARSVDGKEDLIWKLLSKAQEKFGKNKSRSFQLFGSPPGQRDLLFKDSALGFLRIPSKVDSALYLGSRYLTTLKNLRETAEEVKARYTRVVWCAVGPEEQKKCQQWSQQSGQNVTCATASTTDDCIVLVLKGEADALNLDGGYIYTAGKCGLVPVLAENRKSSKHSSLDCVLRPTEGYLAVAVVKKANEGLTWNSLKDKKSCHTAVDRTAGWNIPMGLIVNQTGSCAFDEFFSQSCAPGADPKSRLCALCAGDDQGLDKCVPNSKEKYYGYTGAFRCLAEDVGDVAFVKNDTVWENTNGESTADWAKNLNREDFRLLCLDGTRKPVTEAQSCHLAVAPNHAVVSRSDRAAHVKQVLLHQQALFGKNGKNCPDKFCLFKSETKNLLFNDNTECLAKLGGRPTYEEYLGTEYVTAIANLKKCSTSPLLEACAFLTR
modifications: iron-saturated; Bovine Lactoferrin
notes: Iron-saturated bovine lactoferrin extract (100% saturated) prepared from natural bLf
increase in anti-tumour cytolytic activity (LLC target cells): 150%
B16 tumour response (B16 melanoma tumours): slowed the growth of all three tumour types, but failed to eradicate the tumours altogether
increase in the levels of IL-18 in the intestine (IL-18): 10 fold
inhibition of tumour growth (EL-4 tumours; 2 of 5 mice, vs control diet, P>0.05): 31%
inhibition of tumour growth (EL-4 tumours; the latter 3 mice (tumours first prevented for one week), P<0.05): 51%
mice remaining completely tumour-free (EL-4 tumours; Example 2, of 24 mice, monitored 11 weeks): Four
mice that resisted the tumour challenge for 6 weeks (EL-4 tumours; Example 2, of 24 mice, tumours then grew at reduced rate): Five
time for tumours to reach 0.4 cm in diameter (EL-4 tumours; Example 13, diet started at ~0.2 cm, control mice one week): two
mice of ten that completely rejected the tumour challenge (EL-4 tumours; Example 15, 20 g of Lf per 2.4 Kg diet): one
mice of ten that completely rejected the tumour challenge (EL-4 tumours; Example 16, 1 g Fe-Lf per 2.4 Kg diet): one
tumour growth rate vs control diet (EL-4 tumours; Example 16, 5 and 25 g per 2.4 Kg diet): grew significantly (p<0.05 at days 35-49) more slowly
mice of ten that completely rejected the tumour challenge (EL-4 tumours; Example 16, 5 g Fe-Lf per 2.4 Kg diet): two
mice of ten that completely rejected the tumour challenge (EL-4 tumours; Example 16, 25 g Fe-Lf per 2.4 Kg diet): three
tumour growth rate vs control diet (EL-4 tumours; Example 16, lowest and highest doses (1 and 100 g per 2.4 Kg diet)): did not differ greatly
EL-4 tumour response (EL-4 tumours; Example 18, 28 g Fe-Lf per 2.4 Kg diet, drugs i.p. at ~0.4 to 0.5 cm): slowed the growth of all three tumour types, but failed to eradicate the tumours altogether
state of bovine lactoferrin in plasma ([1]; Example 9, Western blot): largely undegraded
75 kDa band characteristic of lactoferrin in plasma ([1]; Example 9, Western blot of plasma): present
75 kDa band and partially degraded products in tumour and small intestine ([1]; Example 10, homogenates): present in homogenates of both the tumour and small intestine
bovine lactoferrin of 75 kDa in organs ([1]; Example 11, organ homogenates): present in all regions of the intestine, and in the liver, but it was also present in lesser amounts in spleen, heart, lung, kidney, and brain
LLC tumour response [2]: slowed the growth of all three tumour types, but failed to eradicate the tumours altogether

Source: patent US20090202574A1, “METHODS OF IMMUNE OR HAEMATOLOGICAL ENHANCEMENT, INHIBITING TUMOUR FORMATION OR GROWTH, AND TREATING OR PREVENTING CANCER” (priority 2004, published 2009)
